B1: αE-catenin α(CA) (M319G/R326E/R551E), as chain of the supra-complex (natural protein, mouse, UniProt P26231 1-906, looked up)
chain: MTAVHAGNINFKWDPKSLEIRTLAVERLLEPLVTQVTTLVNTNSKGPSNKKRGRSKKAHVLAASVEQATENFLEKGDKIAKESQFLKEELVVAVEDVRKQGDLMKSAAGEFADDPCSSVKRGNMVRAARALLSAVTRLLILADMADVYKLLVQLKVVEDGILKLRNAGNEQDLGIQYKALKPEVDKLNIMAAKRQQELKDVGNRDQMAAARGILQKNVPILYTASQACLQHPDVAAYKANRDLIYKQLQQAVTGISNAAQATASDDAAQHQGGSGGELAYALNNFDKQIIVDPLSFSEERFRPSLEERLESIISGAALGADSSCTEDDRRERIVAECNAVRQALQDLLSEYMGNAGRKERSDALNSAIDKMTKKTRDLRRQLRKAVMDHVSDSFLETNVPLLVLIEAAKNGNEKEVKEYAQVFREHANKLIEVANLACSISNNEEGVKLVRMSASQLEALCPQVINAALALAAKPQSKLAQENMDLFKEQWEKQVRVLTDAVDDITSIDDFLAVSENHILEDVNKCVIALQEKDVDGLDRTAGAIRGRAAEVIHVVTSEMDNYEPGVYTEKVLEATKLLSNTVMPRFTEQVEAAVEALSSDPAQPMDENEFIDASRLVYDGIRDIRKAVLMIRTPEELDDSDFETEDFDVRSRTSVQTEDDQLIAGQSARAIMAQLPQEQKAKIAEQVASFQEEKSKLDAEVSKWDDSGNDIIVLAKQMCMIMMEMTDFTRGKGPLKNTSDVISAAKKIAEAGSRMDKLGRTIADHCPDSACKQDLLAYLQRIALYCHQLNICSKVKAEVQNLGGELVVSGVDSAMSLIQAAKNLMNAVVQTVKASYVASTKYQKSQGMASLNLPAVSWKMKAPEKKPLVKREKQDETQTKIKRASQKKHVNPVQALSEFKAMDSI
notes: αE-catenin, mouse, untagged; residues 690–903 are modelled in the structure; used for the pairs that touch in the cryo-EM structure; also called αE-catenin ABD; ABD1; source: FreeStyle 293-F, co-expressed and purified within the tetramer Eβα(CA)-vinculin(T12-IV)
B2: afadin-CC (afadin coiled-coil region, residues 1393–1602), purified (domain or fragment, mouse, UniProt Q9QZQ1-3 1393-1602, looked up)
chain: ANQAGPQSAQVAAAEWKKREEHQRWYEKEKARLEEERERKRREQERKLGQMRSQTLNPASFSPLATQAKPEKPSTLQRPQETVIRELQPQQQPRTIERKDLQYITISKEELSSGDSLSPDPWKRDAREKLEKQQQMHIVDMLSKEIHELQNKVDRTAEESDRLRKLMLEWQFQKRLQESKQKDEDDDEEEDDDVDTMLIMQRLEAERRAR
notes: afadin coiled-coil region (afadin-CC), mouse; residues 1508–1578 are modelled in the structure; source: FreeStyle 293-F, transfected, purified (anti-GFP beads, TEV, MonoQ, SEC); not shown: GFP, N-terminal, cleaved

Key:
[1] = biological target: F-actin (chicken skeletal muscle actin) (UniProt P68139); experiment: F-actin co-sedimentation assay; conditions: +CC (black bar; with mutant afadin-CC); mean ± SD of three independent experiments; parent: est. 0.89; read off a plot
[2] = biological target: the molecule itself; experiment: cryo-EM structure; 2.5 μM tetramer Eβα(CA)-Vinculin(T12-IV) premixed with 5 μM afadin-CC, added to 0.6 μM F-actin on the grid; maps at 3.1 Å (straight, both strands decorated) and 4.1 Å (curved, one strand decorated)
[3] = biological target: B1; experiment: as above; conditions: both partners purified

Molecule | response [1] | also measured
Eβα(CA)–vinculin(T12-IV)–afadin-CC pentamer (from UniProt Q02248;P26231;P18206-2;Q9QZQ1-3) afadin-CC:F1564A | 0.35 | 
Eβα(CA)–vinculin(T12-IV)–afadin-CC pentamer (from UniProt Q02248;P26231;P18206-2;Q9QZQ1-3) afadin-CC:W1514A; afadin-CC:R1516A; afadin-CC:D1517A; afadin-CC:F1564A | 0.3 | 
B1 |  | binding result [2]: binds
B2 |  | binding result [3]: binds

— publication doi:10.1101/2024.10.08.617332 (bioRxiv, 2024)
